Measurements as given in the DeepSol protein solubility set.

Test: soluble on expression in E. coli; label from the status in PepcDB or PDB records

Row | Sequence | soluble on expression in E. coli
1 | MAKSYDYQSAFDIIGPVMMGPSSSHTAGAVKIGNSARAVLGDMPKHIEIRYYESFAKTHQGHGTDVAIVGGAMGYSTFDSRIKSSLDIAKDENITIDIIEDEGESIGQHPNCAYIKANTKDGRYIEVIGISIGGGTIKLKGINVNGLNVELNHGLPMLVIDGNMNKAKINHLINDLSDMDLDLGEELIETNDNEGLVVFPLNKAISESALNIIKDKHSDLNVSYIK | not soluble
2 | MGSDKIHHHHHHMRFWDIRRVENVSLNLQLENGKLEKPRYNKSTSKGFRVLKNGFWGIFEGNVADDEGLRQAEKNAFTQGDGDIEEIATKGRYRMRVKRDPQDMSIEEKVELLKDLEKIIRDVCVSTKLVYFENRRVLQYRDSCGSEVEYEVLRTGVSIMGVGKGRSLQFLSKRQMRVGGYEVLDGVDEKAYEIVEVLPKLVNALAPPSGEMSVVMDSSLAGVFVHEAFGHAVEADHVLQGATVLKGRLNEKVADESVTIIDDPTLPEFGFFPFDDEGVRAEKKVIVEDGVLKSFLHSRETAKKLGGVAGNARSQGVDVPIVRMSNTYIDTHHYSFDELLEECRDGVYLVGSRGGETNPATGYFHFNAQYGYLIKNGELAEMVRDVSLSGNTLEILRNVKIGREIEFDPGFCGKAGQLVPVSDGSPPVLCRATVGGA | not soluble
3 | MGSDKIHHHHHHMHFAPVEQATRFLADNPDIELFELFILDANGVPRGKLLHREELLAVYQTGRPLPSTILGLTLNGDDVENSGLVWDVGDIDCRAYPLDGSLVRLPWRRVPTAAVQVSMHPSEGLPASIADPRHVLLRTIEALKADGYHPVMACELEFYLLDQQRDAQGRPQPALDNDGGRPRSTQVYGLRELEQIEPFLADLYAACKAQGIPARTAISEYAPGQVEITLEHGDALQAMDQAVRYKRLVKGVAHAHGMQACFMAKPFAQLAGTGMHMHLSLADSAGNNLFASEDKAGTPLLRQAVAGMLRHLRDSLLLFCPNANSFRRFQANSYAPLAPTWGVDNRTVSLRVPGGPANSRHVEHRICGADANPYLAAAAILAASHWGIREQLDPGAPVEGNGYAQATEHLPTDWLTALDALQHSDWAREALGEDFLGVYLKVKRAEYRQFMAEVSEQDWRWYLHQA | not soluble
4 | PQMKTLETRSCILRPASLDDVEDFFDCYKNKIVVKHLPFSEHKSLEDTRKFIKSFFLNPYKKGKIGHFAIVYKRDNKVIGNMGFNNINPKALEAEIGICINPSYWGHDFATEITKRVIQYGFRELNLNKIIAITYEENQNSTKSLDLLGFKCTGKYIKKIHTGNTVKNVPCYQYELKKQ | not soluble
5 | MRMNLTNHFLVAMPGMKDPYFQNSVIYVCEHNEEGAMGLMINAPVDITVGNMLKQVDVQPVHPRLFEASLDRPVYNGGPISEDRGFILHKPKDYYESSIQMTDDLAVTTSRDILSVLGTEAEPSDYLVALGYSGWSAGQLENELVENSWLTIEATPEIIFDTPITERWKKAVEKLGIDPSQLSADAGHALEHHHHHH | soluble
6 | MRKKLKAVLFDMDGVLFNSMPYHSEAWHQVMKTHGLDLSREEAYMHEGRTGASTINIVFQRELGKEATQEEIESIYHEKSILFNSYPEAERMPGAWELLQKVKSEGLTPMVVTGSGQLSLLERLEHNFPGMFHKELMVTAFDVKYGKPNPEPYLMALKKGGLKADEAVVIENAPLGVEAGHKAGIFTIAVNTGPLDGQVLLDAGADLLFPSMQTLCDSWDTIML | not soluble
7 | MVEIDPFEMAVKQLERAAQYMDISEEALEWLKKPMRIVEVSVPIEMDDGSVKVFTGFRVQHNWARGPTKGGIRWHPAETLSTVKALATWMTWKVAVVDLPYGGGKGGIIVNPKELSEREQERLARAYIRAVYDVIGPWTDIPAPDVYTNPKIMGWMMDEYETIMRRKGPAFGVITGKPLSIGGSLGRGTATAQGAIFTIREAAKALGIDLKGKKIAVQGYGNAGYYTAKLAKEQLGMTVVAVSDSRGGIYNPDGLDPDEVLKWKREHGSVKDFPGATNITNEELLELEVDVLAPAAIEEVITEKNADNIKAKIVAEVANGPVTPEADDILREKGILQIPDFLCNAGGVTVSYFEWVQNINGYYWTEEEVREKLDKKMTKAFWEVYNTHKDKNIHMRDAAYVVAVSRVYQAMKDRGWVKK | soluble
8 | MTFLRYAIYFLPPASEAWAGFGASWLGWDVETGQELAHPAETGLDVAALTATPRKYGLHATMKPPFRLAEGQDVDALRRACATLAASRPAVTLDGLEIARLGRFLALRPVGELGALNALAAACVTELDPFRAPATPQELVRRRAARLSPEQDAHLLSWGYPYVLDQFRFHITLTGRLDDDMLMQAQTLLQRRLGPLLPVPFTLADLALVGEAGDGRFHLIHRYALSR | not soluble
9 | MSYTHILVAVAVTPESHQLLAKAVSIARPVQAKVSLITLASDPELYNQFAAPMMEDLRAVMHEETENFLKMLGEKADYPIEQTFIASGELSQHILAVCRKHHVDLVICGNHNHSFFSRASCSAKSVVSASQVDVLLVPLAGD | not soluble
10 | MGGSHHHHHHGMASALASYFDEHDCEPSDPEQETRTNMLLELARSLFNRMDFEDLGLVVDWDHHLPPPAAKTVVENLPRTVIRGSQAELKCPVCLLEFEEEETAIEMPCHHLFHSSCILPWLSKTNSCPLCRYELPTDDDTYEEHRRDKARKQQQQHRLENLHGAMYT | not soluble
11 | MKKTIVFKCGGSVIRELSEEFYQNLKELRASGWKLAIVHGGGPEITNMLKRLNIKTEFSGGQRKTTKPVLEVAEMVLSGSVNKFFVAELAKHGLRAAGISGKDGGLLEADYLDPETYGEVGEIKKVDASMVNALMENGIIPVIAPLSMTSDCKTLNVNADLAASAVAGALEADKLMFVTDVDGIMKEKQRLDVLTPKEIQMLIKQEVITGGMIPKVNSALSALSDQVSEVMIVNGKGSFFAEQTFQGTKIVKAKEAVS | not soluble
12 | MGSDKIHHHHHHMKTEIVEIESECLKDNFLKDDWKRQILVYRPDDAEGGLPLFIELAGTNWRPRTHNKFSLIIEKLFSSGLKAVVLNPNFSTRYNMNQYLNSPAVGSYEDFIVKELIPYFKDKYGTDHTALFGKSSGGFGSYTLAARHPDIIDGFADHFGDSCFFYLYADDMAAAFRYIQRHGKSESVKMLTSHMPSDDEMKVLNVIGSSAFYSPDMNDVNGFDLPFDEDTGELIEDVWQRWVQFDPAKNVLKYSGALKKMKAIYLDVGTNDEYKLYIGTRALHKKLGLANIDHYYEEFNGGHFGNSERYLYSLPFLYRKLNDTA | not soluble
13 | MSLVEQLVKELSKGLNTRDYPEGFFKEHLAFRLKINKLEPVKHPHIPDINSLLGVEKQKEVLLRNTAQFVKGLPANDVLLWGARGTGKSSLVKALLGVFGKEGLRIVQVTKHEIPELADLYEVLRDKEEKFILFFDDLTFEPHEDAFRLLKSIMEGDVEERPQNVLFTQLQTGDTSLRIWKKRINFRRKHSTKSFL | not soluble
14 | MTNKDIYKNNPLHGTSLETVLTTLVDHYGFEILAAYMNLNCFKQNASIESSLKFLKKTQWAQEKVEAFYMYQYNSLPKADDANFELPPRDRIVPSGLEQRPPKELSLDDAEELRIKQAKKTRERAAAATSANPWGSRLEHHHHHH | not soluble
15 | MGSDKIHHHHHHMRIVLGVSSGIAIYKAVDLASKLRKEGHELHVVMTPDATRMISPVVFSAVGNCSVYHDWMDVRNGWIPHTEISRTADVLVVAPATANTISKIANGIADNLLTLVALAFDKDAKILVPTMNYRMYSNKLFQENLEKLKNNGWFVVEPEEGHLACGEVGKGRYPENEKIVEAVHLLTFPKKLAGKKVLITAGPTRERIDAVRFITNASSGKMGYALATVAKRMGARVSLVSGPTSLKPPYYVDEFVKVESAEEMYEEVMKRFEDTDIVIMNAAVGDYRPKKVFEGKLKKTENDLVLHLERTKDILKELGQRKSNQILVGFAAEVENFEENAVKKLREKNLDLLVLNDARKAFSSDRVEVYIYGRDGFIKRIDEDDKIRVACGILDVVSNLAGGSPS | not soluble
16 | MAHHHHHHMLPAGLTLNTLTPLAQIPVELQRLARCAINAHRNAYCPYSKFAVGAALLHKDLKITAGCNYENCTLKGCCAELCAIVKGNSEGRRTATAVAVYGCSKAPDVMNLPPPDTVTPPCGFCRQSLVEVADLSNNYEDFLVVLVTLDKERVKLVKLCDIIPLKFGPSNIGMDLSQLAKDVELGNEDEKK | not soluble
17 | SRQWSQTLCEMSESEDDDIPQLSSHTLAALQEFYAEQKQSVNPRGDDKYNVGVIEENWQLSQFWYSQDTALRLAREAIDAAGEGGRIACVSAPSVYQKLRELCREDSSVYIFEYDRRFAIYGDEFIFYDYNHPLELPERIAAHSFDLVVADPPYLSEECLRKTSETIQFLTRGKILLCTGAIMEEQAAQLLGVKMCKFIPEHSRNLANEFRCYTNYDSGLDCEA | soluble
18 | MSLKKYMGIIVDAISRRQFKGEITVENGKIIRVEEKEHDNEQYILPGLVDAHVHIESSMTVPSVFARMAVAKGTVAVVSDPHEIANVMGEEGIEFMLEDSKKSPLKVYFGVPSCVPATPFESSGAVLDINAVDRLLAKDDLHYLSEMMNFPGVILEFPDVMAKLESARKHGKVIDGHAPGLRGADLQKYIGAGISTDHECFEYEEAREKIELGMKILIREGSSARNFETLYPLIDEYPDHVMLCTDDSHPDTLIYEGHIDKLIRRGQEKGLDIYNLIRTAVFNPVEHYGLNVGLLREGDPADFIIVDNLKSFNILSTFIDGECVYENGKVLFPLEKVPAKNVFNRNKISIDDVKLVPPAGAIQEQTTEKGIKKIRVIVANDGELVTGQELIVPKIENGNLVSDPERDILKMVVLSRYSDDPVRIGFIKNIGLEKGAIASSIAHDSHNIIAVGATDEDIVETVNRLIKNKGGIAVGTAENLLDLPLEVAGLMSTLEGEEVASRYHLLNEEARKLGTSLESPFMTLAFMSLLVIPELKLGDKGLFDVTKFEFVDLFADEGHHHHHH | soluble
19 | MSKDYQSLAKLSPFELKDELIKIASSDGNRLMLNAGRGNPNFLATTPRRAFFRLGLFAAAESELSYSYMTTVGVGGLAKIDGIEGRFERYIAENRDQEGVRFLGKSLSYVRDQLGLDPAAFLHEMVDGILGCNYPVPPRMLNISEKIVRQYIIREMGADAIPSESVNLFAVEGGTAAMAYIFESLKLNGLLKAGDKVAIGMPVFTPYIEIPELAQYALEEVAINADPSLNWQYPDSELDKLKDPAIKIFFCVNPSNPPSVKMDQRSLERVRNIVAEHRPDLMILTDDVYGTFADDFQSLFAICPENTLLVYSFSKYFGATGWRLGVVAAHQQNVFDLALDKLQESEKVALDHRYRSLLPDVRSLKFIDRLVADSRAVALNHTAGLSTPQQVQMALFSLFALMDEADEYKHTLKQLIRRRETTLYRELGMPPLRDENAVDYYTLIDLQDVTAKLYGEAFSEWAVKQSSTGDMLFRIADETGIVLLPGRGFGSNRPSGRASLANLNEYEYAAIGRALRKMADELYAEYSGQAQNLKLAAALEHHHHHH | soluble
20 | HRPKRIESAVISSFSPVINSPMRDYLGKGLDHLATHSRYDMGRLINDTIGKHLPSLFKRFNYRHVSTLDGHEYDQMHYHFSQILELDPDNYLTAGQQIKAPVLFINGAWDEYTSASDATQFSRYLQNCSFSTIEATGHFLDMEHKAACNDSKQALMKFLQ | not soluble
21 | MSDKLFSIVTISFNQAQFLREAVESVLAQKGGDIEYIVVDPGSTDGSREILAEYRSAIDHLILEADHGPGDGLNKGFARANGRYGYFLNSDDFLLPGAIDIMRTLWQRHKNTDVLLCGAWMVDENRRPQRELRPSPVTLEKLLDGEAKIVQQGMSFRMDLFRKVGGFNVGNRTCWDYELLCDFLAAGAAVTQSEARLAAFRIHSASISGGIGGELATKRYLADLDSVYERLTGQKKKPEQRRRAVRLSKRLGSPSHVLLRMRELLAPWTLELRWQADHERKSRRLEHHHHHH | not soluble
